Test results taken from patent US20260216242A1, “ALPP-SPECIFIC VARIANT ANTIGEN BINDING MOLECULES” (ALMAC DISCOVERY LIMITED, priority 2022, published 2026).
Changes are numbered by the printed parent chain. Numbers in names are those of the source.

B1: D10 F05-hFc (S239/442C T366Y/Y407T) [G4S]1 conjugated to MC-vc-PAB-MMAE (Fc fusion, DAR 4.0)
chain 1: QVQLVESGGGLVQPGGSLRLSCAASGSIFSVNTMGWYRQAPGKQRDLVAVATSGGTIHYADSVKGRFTISRDNAKNTVYLQMNSLKPEDTAVYYCNLVVPYGMIAGDHDYWGQGTKVTVSSGGGGSEPKSSDKTHTCPPCPAPELLGGPCVFLFPPKPKDTLMISRTPEVTCVVVDVSHEDPEVKFNWYVDGVEVHNAKTKPREEQYNSTYRVVSVLTVLHQDWLNGKEYKCKVSNKALPAPIEKTISKAKGQPREPQVYTLPPSRDELTKNQVSLYCLVKGFYPSDIAVEWESNGQPENNYKTTPPVLDSDGSFFLYSKLTVDKSRWQQGNVFSCSVMHEALHNHYTQKSLCLSPGK
chain 2: QVQLVESGGGLVQAGGSLRLSCAASGRAFGDYNIGWFRQAPGKEREFVARRTWDGSSTRYDDSVKGRFTVSIDNAKNTAYLQMNSLKTEDTAVYYCAAGRYSRVRGWEYDYWGQGTQVTVSSGGGGSEPKSSDKTHTCPPCPAPELLGGPCVFLFPPKPKDTLMISRTPEVTCVVVDVSHEDPEVKFNWYVDGVEVHNAKTKPREEQYNSTYRVVSVLTVLHQDWLNGKEYKCKVSNKALPAPIEKTISKAKGQPREPQVYTLPPSRDELTKNQVSLTCLVKGFYPSDIAVEWESNGQPENNYKTTPPVLDSDGSFFLTSKLTVDKSRWQQGNVFSCSVMHEALHNHYTQKSLCLSPGK
modifications: here or on the partner: MC-vc-PAB-MMAE on Cys 239 and Cys 442 (S239C, S442C, EU numbering)
B2: A06 F05-hFc (S239/442C T366Y/Y407T) [G4S]3 conjugated to MC-vc-PAB-MMAE (Fc fusion, DAR 4.0)
chain 1: QVHLVESGGGLVQAGGSLRLSCAASGRTFLSMGWFRQAPGKEREFVAAISWTGGSTGYADSVKGRFTISRESDKETMYLQMNSLKPEDTAVYYCAARGDVYYGGDDATRYKYWGQGTQVTVSSGGGGSGGGGSGGGGSEPKSSDKTHTCPPCPAPELLGGPCVFLFPPKPKDTLMISRTPEVTCVVVDVSHEDPEVKFNWYVDGVEVHNAKTKPREEQYNSTYRVVSVLTVLHQDWLNGKEYKCKVSNKALPAPIEKTISKAKGQPREPQVYTLPPSRDELTKNQVSLYCLVKGFYPSDIAVEWESNGQPENNYKTTPPVLDSDGSFFLYSKLTVDKSRWQQGNVFSCSVMHEALHNHYTQKSLCLSPGK
chain 2: QVQLVESGGGLVQAGGSLRLSCAASGRAFGDYNIGWFRQAPGKEREFVARRTWDGSSTRYDDSVKGRFTVSIDNAKNTAYLQMNSLKTEDTAVYYCAAGRYSRVRGWEYDYWGQGTQVTVSSGGGGSGGGGSGGGGSEPKSSDKTHTCPPCPAPELLGGPCVFLFPPKPKDTLMISRTPEVTCVVVDVSHEDPEVKFNWYVDGVEVHNAKTKPREEQYNSTYRVVSVLTVLHQDWLNGKEYKCKVSNKALPAPIEKTISKAKGQPREPQVYTLPPSRDELTKNQVSLTCLVKGFYPSDIAVEWESNGQPENNYKTTPPVLDSDGSFFLTSKLTVDKSRWQQGNVFSCSVMHEALHNHYTQKSLCLSPGK
modifications: here or on the partner: MC-vc-PAB-MMAE on Cys 239 and Cys 442 (S239C, S442C, EU numbering)
B3: D10 E06-hFc (S239/442C T366Y/Y407T) [G4S]3 conjugated to MC-vc-PAB-MMAE (Fc fusion, DAR 4.0)
chain 1: QVQLVESGGGLVQPGGSLRLSCAASGSIFSVNTMGWYRQAPGKQRDLVAVATSGGTIHYADSVKGRFTISRDNAKNTVYLQMNSLKPEDTAVYYCNLVVPYGMIAGDHDYWGQGTKVTVSSGGGGSGGGGSGGGGSEPKSSDKTHTCPPCPAPELLGGPCVFLFPPKPKDTLMISRTPEVTCVVVDVSHEDPEVKFNWYVDGVEVHNAKTKPREEQYNSTYRVVSVLTVLHQDWLNGKEYKCKVSNKALPAPIEKTISKAKGQPREPQVYTLPPSRDELTKNQVSLYCLVKGFYPSDIAVEWESNGQPENNYKTTPPVLDSDGSFFLYSKLTVDKSRWQQGNVFSCSVMHEALHNHYTQKSLCLSPGK
chain 2: QVHLVESGGGLVQAGGSLRLSCAASRRSFSEYAMGWFRQAPGKEREFVAAIGWSGVIEYADSVKGRFTISRDNAKDTVYLQMNSLKPEDTAVYYCAAGLGIRVVSQTPAYWGQGTQVTVSSGGGGSGGGGSGGGGSEPKSSDKTHTCPPCPAPELLGGPCVFLFPPKPKDTLMISRTPEVTCVVVDVSHEDPEVKFNWYVDGVEVHNAKTKPREEQYNSTYRVVSVLTVLHQDWLNGKEYKCKVSNKALPAPIEKTISKAKGQPREPQVYTLPPSRDELTKNQVSLTCLVKGFYPSDIAVEWESNGQPENNYKTTPPVLDSDGSFFLTSKLTVDKSRWQQGNVFSCSVMHEALHNHYTQKSLCLSPGK
modifications: here or on the partner: MC-vc-PAB-MMAE on Cys 239 and Cys 442 (S239C, S442C, EU numbering)
B4: D10 F05-hFc (S239/442C T366Y/Y407T) [G4S]3 conjugated to MC-vc-PAB-MMAE (Fc fusion, DAR 3.9)
chain 1: B3 chain 1
chain 2: B2 chain 2
modifications: here or on the partner: MC-vc-PAB-MMAE on Cys 239 and Cys 442 (S239C, S442C, EU numbering)
B5: D10 E10-hFc (S239/442C T366Y/Y407T), [G4S]1 linker, MC-vc-PAB-MMAE conjugate, #678 (Fc fusion, DAR 4)
chain 1: B1 chain 1
chain 2: B1 chain 2 with A24V, F29L, G30S, R51K, D73E, N74D, N84S, V104A
modifications: here or on the partner: MC-vc-PAB-MMAE on Cys of S239C and S442C (EU numbering)
B6: D10 F05-hFc (S239/442C T366Y/Y407T), [G4S]1 linker, MC-vc-PAB-MMAE conjugate, #679 (Fc fusion, DAR 4)
chain 1: B1 chain 1
chain 2: B1 chain 2
modifications: here or on the partner: MC-vc-PAB-MMAE on Cys of S239C and S442C (EU numbering)
B7: D10 E06-hFc (S239/442C T366Y/Y407T), [G4S]1 linker, MC-vc-PAB-MMAE conjugate, #677 (Fc fusion, DAR 4)
chain 1: B1 chain 1
chain 2: QVHLVESGGGLVQAGGSLRLSCAASRRSFSEYAMGWFRQAPGKEREFVAAIGWSGVIEYADSVKGRFTISRDNAKDTVYLQMNSLKPEDTAVYYCAAGLGIRVVSQTPAYWGQGTQVTVSSGGGGSEPKSSDKTHTCPPCPAPELLGGPCVFLFPPKPKDTLMISRTPEVTCVVVDVSHEDPEVKFNWYVDGVEVHNAKTKPREEQYNSTYRVVSVLTVLHQDWLNGKEYKCKVSNKALPAPIEKTISKAKGQPREPQVYTLPPSRDELTKNQVSLTCLVKGFYPSDIAVEWESNGQPENNYKTTPPVLDSDGSFFLTSKLTVDKSRWQQGNVFSCSVMHEALHNHYTQKSLCLSPGK
modifications: here or on the partner: MC-vc-PAB-MMAE on Cys of S239C and S442C (EU numbering)
B8: A06 F05-hFc (S239/442C T366Y/Y407T), [G4S]1 linker, MC-vc-PAB-MMAE conjugate, #712 (Fc fusion, DAR 4)
chain 1: QVHLVESGGGLVQAGGSLRLSCAASGRTFLSMGWFRQAPGKEREFVAAISWTGGSTGYADSVKGRFTISRESDKETMYLQMNSLKPEDTAVYYCAARGDVYYGGDDATRYKYWGQGTQVTVSSGGGGSEPKSSDKTHTCPPCPAPELLGGPCVFLFPPKPKDTLMISRTPEVTCVVVDVSHEDPEVKFNWYVDGVEVHNAKTKPREEQYNSTYRVVSVLTVLHQDWLNGKEYKCKVSNKALPAPIEKTISKAKGQPREPQVYTLPPSRDELTKNQVSLYCLVKGFYPSDIAVEWESNGQPENNYKTTPPVLDSDGSFFLYSKLTVDKSRWQQGNVFSCSVMHEALHNHYTQKSLCLSPGK
chain 2: B1 chain 2
modifications: here or on the partner: MC-vc-PAB-MMAE on Cys of S239C and S442C (EU numbering)

Each binder was assayed against ALPP/ALPPL2 on ALPP/ALPPL2 positive cancer cells (assay: cell-based or functional assay).
Throughout, for % viability remaining at 96 h, MKN1 cells: test concentration or dose not given here.
Throughout, for % viability remaining at 96 h, NCI-N87 cells: test concentration or dose not given here.

| Binder | % viability remaining, MDA-MB-468 cells [%] | % viability remaining, MKN-1 cells [%] | % viability remaining, NCI-H1651 cells [%] | % viability remaining, NCI-N87 cells [%] | IC50 at 96 h (nM), cell-killing of MDA-MB-468 cells (Cell Titre Glo) [nM] | IC50 at 96 h (nM), cell-killing of MKN-1 cells (Cell Titre Glo) [nM] | IC50 at 96 h (nM), cell-killing of NCI-H1651 cells (Cell Titre Glo) [nM] | IC50 at 96 h (nM), cell-killing of NCI-N87 cells (Cell Titre Glo) [nM] |
| --- | --- | --- | --- | --- | --- | --- | --- | --- |
| B1 | 17 | 16 | 22 | 35 | 2.36 | 0.14 | 0.85 | 2 |
| B2 | 17 | 16 | 22 | 36 | 12 | 0.26 | 0.47 | 7.9 |
| B3 | 16 | 12 | 21 | 34 | 1.55 | 0.1 | 0.53 | 3.6 |
| B4 | 17 | 13 | 22 | 37 | 0.96 | 0.12 | 0.74 | 1.8 |

These binders were tested against ALPP/ALPPL2 on ALPP/ALPPL2 positive cancer cells (MKN1, NCI-H1651, NCI-N87, Caov-3, HPAC) (assay: cell-based or functional assay).

| Binder | % viability remaining at 96 h, MKN1 cells [%] | % viability remaining at 96 h, NCI-H1651 cells [%] | % viability remaining at 96 h, NCI-N87 cells [%] | IC50 at 96 h, cell-killing of MKN1 cells [nM] | IC50 at 96 h, cell-killing of NCI-H1651 cells [nM] | IC50 at 96 h, cell-killing of NCI-N87 cells [nM] |
| --- | --- | --- | --- | --- | --- | --- |
| B5 | 24.5 | 31 | 23.6 | 8.1 | 0.6 | 0.5 |
| B6 | 25.2 | 31.2 | 21.8 | 9.7 | 0.8 | 0.6 |
| B7 | 5.3 | 28.9 | 25.5 | 31.8 | 1.3 | 0.6 |
| B8 | 27.1 | 31.3 | 20.7 | 45.9 | 0.9 | 0.7 |
